From publication PMC7494870, “Arrangement and symmetry of the fungal E3BP-containing core of the pyruvate dehydrogenase complex” (Nature Communications, 2020)
Each block holds one binder with its values, some of them ahead of it.

Key:
[1] = biological target: T1, Neurospora crassa protein X (endogenous, in the native PDC) (N. crassa (endogenous in N. crassa …, UniProt Q7RWS2 1-426)); experiment: cryo-EM structure; single-particle cryo-EM of intact native PDC purified from N. crassa mitochondria; icosahedral and tetrahedral (classes X, Y) reconstructions; details: both partners purified
T1 construct: Protein X (PX) of the pyruvate dehydrogenase complex, Neurospora crassa, uniprot Q7RWS2, locus NCU00050; Forms trimers inside the E2 core; also called PX; X-component; source: endogenous, PDC purified from N. crassa mitochondria (DDM lysis, sucrose cushion, sucrose gradient, SEC)
T1 sequence (looked up): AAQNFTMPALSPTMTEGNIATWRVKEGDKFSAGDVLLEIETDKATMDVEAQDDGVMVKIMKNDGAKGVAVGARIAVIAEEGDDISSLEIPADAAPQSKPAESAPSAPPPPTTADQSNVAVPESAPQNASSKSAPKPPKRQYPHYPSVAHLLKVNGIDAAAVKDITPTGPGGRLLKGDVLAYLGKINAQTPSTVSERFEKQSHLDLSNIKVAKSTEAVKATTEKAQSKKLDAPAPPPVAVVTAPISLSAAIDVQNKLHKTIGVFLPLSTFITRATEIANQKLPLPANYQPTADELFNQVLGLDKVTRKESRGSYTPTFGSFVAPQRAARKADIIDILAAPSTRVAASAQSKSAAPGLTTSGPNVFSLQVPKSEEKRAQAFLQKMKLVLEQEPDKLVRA

[2] = biological target: the molecule itself; experiment: as above
[3] = biological target: T2, N. crassa PX (30-426), His-tagged, separately expressed (N. crassa, UniProt Q7RWS2 30-426); experiment: pull-down; separately expressed tE2 and His-tagged PX variants, brief incubation, co-purified by Ni-NTA affinity
T2 construct: Protein X (PX), Neurospora crassa, residues 30-426 of uniprot Q7RWS2; His6 tag is cleavable with TEV; protein was either cleaved with TEV or eluted with imidazole depending on the purpose; also called full-length PX; source: E. coli Rosetta2 (DE3), pRSET vector, single expression, Ni-NTA
T2 sequence (looked up): T1 sequence (looked up)

[4] = biological target: the molecule itself; experiment: cryo-EM structure; single-particle cryo-EM of the reconstituted tE2 + PX30 recombinant subcomplex, icosahedral symmetry
[5] = biological target: the molecule itself; experiment: cryo-EM structure; single-particle cryo-EM of the co-expressed tE2 + PX261 subcomplex, icosahedral symmetry

stoichiometry N [1]: ≤ 12 PX monomers per E2 core
B1: Neurospora crassa pyruvate dehydrogenase complex E2 (endogenous, core of the native PDC) (enzyme, UniProt P20285 29-458, looked up)
chain: ASYPPHTVVKMPALSPTMTSGGIGAWQKKPGDKIEPGEVLVEIETDKAQMDFEFQEEGVLAKILKDSGEKDVAVGNPIAILVEEGTDVNAFKDFTLKDAGGETSPAVPKDEPKNESTASAPTPAPTPAPEPENTSFTGRFQTALEREPNALPAAKRLAREKGIDLRNVKGSGPGGKITEEDVKKALASAPAAGAAAAAYTDVPISGMRKTIAARLKESVTENPHFFVSTNLSVSKLLKLRQALNSSADGRYKLSVNDFLIKAMGIASKRVPTVNSSWRDGVIRQFETVDVSVAVATPNGLITPIVKGVEGKGLESISAAVKELAKKARDGKLKPEEYQGGSISISNMGMNPAVQSFTAIINPPQAAILAVGAPQKVAVPVENEDGTTGVSWDEQIIVTASFDHKVVDGAVGAEWIRELKKVIENPLELLL
notes: E2 of the pyruvate dehydrogenase complex, Neurospora crassa, uniprot P20285; residues 232-458 identified in the native reconstruction; Icosahedral core of 60 E2 in the native complex; only the core-forming domain is ordered in the map; also called E2 core; PDC core; source: endogenous, PDC purified from N. crassa mitochondria (DDM lysis, sucrose cushion, sucrose gradient, SEC); copies: 60
stoichiometry N [2]: 60

binding result [3]: binds
B2: N. crassa E2 core-forming domain, tE2 (225-458), separately expressed (domain or fragment, UniProt P20285 225-458, looked up)
chain: AAYTDVPISGMRKTIAARLKESVTENPHFFVSTNLSVSKLLKLRQALNSSADGRYKLSVNDFLIKAMGIASKRVPTVNSSWRDGVIRQFETVDVSVAVATPNGLITPIVKGVEGKGLESISAAVKELAKKARDGKLKPEEYQGGSISISNMGMNPAVQSFTAIINPPQAAILAVGAPQKVAVPVENEDGTTGVSWDEQIIVTASFDHKVVDGAVGAEWIRELKKVIENPLELLL
notes: E2 core-forming domain, Neurospora crassa, residues 225-458 of uniprot P20285; His6 tag is cleavable with thrombin; PDB 6ZLO covers residues 227-458; source: E. coli Rosetta2 (DE3), pRSET vector, single expression
binding result [4]: binds

B3: N. crassa E2 core-forming domain, tE2 (225-458), untagged, co-expressed with PX constructs (domain or fragment, UniProt P20285 225-458, looked up)
chain: B2 chain
notes: E2 core-forming domain, Neurospora crassa, residues 225-458 of uniprot P20285; also called untagged E2 core-forming domain; source: E. coli Rosetta2 (DE3), petDuet dual-expression vector, co-expressed with His-tagged PX constructs, in lysate; co-purified on Ni-NTA
binding result [5]: binds
